Source: paper PMC9871958 (Protein & Cell, 2022)

How the values were obtained:
SARS-CoV-2 RBD protein [1] = biological target: T1, SARS-CoV-2 RBD protein (SARS-CoV-2, UniProt P0DTC2); test: SPR; conditions: both partners purified
SARS-CoV-2 RBD protein [2] = biological target: T1, SARS-CoV-2 RBD protein; test: cell-based or functional assay

B1: 1F (antibody, V domains shown)
VH: EVQLVESGPGLVKPSETLSLTCTVSGGSISSSSYYWGWIRQPPGKGLEWIGSIYYRGSTYYNPSLKSRVTISVDTSKNQFSLKLSSVTAADTAVYYCARHVRSAYYYGSGSYRDEGNWFDPWGQGTLVTVSS
VL: QSVLTQPPSVSGAPGQRVTISCTGTRSNIGAGHDVHWYQQLPGTAPKLLIYGNNNRPSGVPDRFSGAKSGTSASLAITGLQAEDEADYYCQSYDRTLTSYVFGTGTKVTVL
B1 was tested, and the Kd (SARS-CoV-2 RBD protein [1]) was 0.077 nM and the “IC50 of neutralisation of authentic SARS-CoV-2 virus (1F blocks RBD-ACE2)” value (SARS-CoV-2 RBD protein [2]) was 0.018 µg/mL.
